# Measured values: the RNAGym collection of RNA variant scans (doi:10.1073/pnas.2313332121)
# Fewer inactive variants are shown than the library holds.
# B1: TPR 5TU (parent)
# chain: GGAUCUUCUCGAUCUAACAAAAAAGACAAAUCUGCCACAAAGCUUGAGAGCAUCUUCGGAUGCAGAGGCGGCAGCCUUCGGUGGCGCGAUAGCGCCAACGUUCUCAACUAUGACACGCAAAACGCGUGCUCCGUUGAAUGGAGUUUAUCAUG
# Variants of: B1
# Test: polymerase ribozyme fitness, log enrichment relative to wild type (log ratio); higher = more active; in vitro selection for triplet polymerase activity
# How it was run: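 Both subunits of a heterodimeric triplet polymerase ribozyme were given their own mutant library, built by PCR and transcribed. Each library was annealed with a biotinylated primer, the partner subunit and triplets, incubated frozen at −7 °C, and its extended constructs gel-excised, captured on streptavidin beads and amplified by RT-PCR, all in one round done in triplicate. Fitness is the logarithm of genotype enrichment relative to wild-type enrichment, with replicates averaged by inverse-variance weighting. That logarithm is base 2, and Illumina-sequenced genotypes needed ≥10 input reads and ≥1 read per output.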
row,Variant,polymerase ribozyme fitness (log ratio)
1,A49C C96G,-3.45
2,G50U C57G,0.0255
3,G50A C85A,-3.59
4,A49G C51A G94A G124U,-3.32
5,A49C G62A C87A G140C,≤ -4.2
6,A49G U53C A98U A121G,-1.87
7,G50A C79A,≤ -4.2
8,A49C C69U G84A C93U C96U C129G U148C,≤ -4.2
9,A49C C99U U102G,-0.308
10,G50U C95A U109G,-3.26
11,A49C C57U G74U U90A C93G C95U C103G A138C,≤ -4.2
12,G50C C93A C103G A113G A115U G140C,≤ -4.2
13,A49U G68C,≤ -4.2
14,G50A C54U C85U G92U U148A,≤ -4.2
15,A49C U55G C76U C87A C99U C105U A120U,≤ -4.2
16,C51A C95U A97U,-2.64
17,G50C U134A,-3.17
18,G50U U61A C93G C105U A107G,≤ -4.2
19,A49U G84U A97G C114G,≤ -4.2
20,A49C A52U A60G G94A A97G,-3.63
21,A49U G59A A122U,-0.783
22,A49U C57U C93G C103G U144C,≤ -4.2
23,A49C C51U C95U C96A G112A G126A,≤ -4.2
24,A49C G141U,-3.13

row,Variant,polymerase ribozyme fitness (log ratio)
1,A49U C93A,-3.3
2,A49C U55G U61A C96A U111G A119U U148C,≤ -4.2
3,G48C C85A C118A,-1.39
4,A49C U55G A60U G65A G74C U77A,≤ -4.2
5,G50U A89U C93U C99U U145A,-3.4
6,G48A A52G U55G G70C C96A,≤ -4.2
7,G50A C54U U56A G70A C87G U90A C95G U109G C114G G141U,≤ -4.2
8,G50C G68U C85U G92U A106G,≤ -4.2
9,G50A C96G C129U,-3.02
10,G50A A52C C72G A97C C99A U139C G143A,≤ -4.2
11,G50U A122G U148A,-3.37
12,G48C G59A C85U C129A,-4.08
13,G50A C75U A91U A150C,≤ -4.2
14,A47U G81C C85G G86U C95U A106C G143A,≤ -4.2
15,G48A C57A,0.284
16,A49G C85U G117U U135C G143C,-4.06
17,A49U U55G G58A C123A G126U U148A,≤ -4.2
18,A49G G50U C87G U144G,≤ -4.2
19,G48A U56A C85U A110G G141U,≤ -4.2
20,G48A C85G C125G,-4.1
21,A47U U55G G68A G84U U151A,≤ -4.2
22,G50U G58A,0.88
23,G50A G136U,-2.96
24,A49U A73U G88A C105A U144A,≤ -4.2

row,Variant,polymerase ribozyme fitness (log ratio)
1,G48C C96G C103G C105G A106G,-3.96
2,G50A A73U C87A U144A,≤ -4.2
3,G48U U56A G67A A73C G86U A107G,≤ -4.2
4,G50A C51G G83U G84A G141U,≤ -4.2
5,G50U C57A C72U G84A,-0.724
6,G50A C57U C76U C125U A142C U144G A150G,-3.98
7,A49U C87A,≤ -4.2
8,G48A C57G G83C C87G U102A G112C A119C,≤ -4.2
9,G50U C72A A89C G92A C129A A137G A150U,≤ -4.2
10,G50A U55A A91U U135C,≤ -4.2
11,G50U A60U C76A G80U U101G A107U,≤ -4.2
12,G50A G88A C95U C123G U139G U151G,≤ -4.2
13,A49U G59A C85A,-3.41
14,G48U A73G,-1.15
15,G50U C93G,-3.35
16,G50A C125A,-1.79
17,C51A C93U,-2.22
18,A49U G67A C95U C114G A142C,≤ -4.2
19,A47U U55A C87U,-2.17
20,A49C U56A A113U G152U,-3.93
21,G50A A64G,-3.77
22,A49U G141A,-1.34
23,G48C G59C G92U C99G A106U,≤ -4.2
24,G50A U61A G81U G83C A91U U104G G143A,≤ -4.2

row,Variant,polymerase ribozyme fitness (log ratio)
1,A49G C54U U109G,-2.26
2,G50C G80C C93A A98U,≤ -4.2
3,G48A G67U G80C C85U C132U,≤ -4.2
4,G50A U55A A97C A147U U148A,≤ -4.2
5,A49C C93U,≤ -4.2
6,A49C A66G,≤ -4.2
7,A49C A66U,≤ -4.2
8,A49C U146A,-3.98
9,G50A G84A A142C,-3.15
10,G50A C57G G81A C85U C116U,-2.31
11,G48A G67U G84U C105G,≤ -4.2
12,C51A A52C C116U C118A A142U,≤ -4.2
13,G50U C72U A97C,-0.611
14,G48A C79A C85G A110U G124A,≤ -4.2
15,A49C A107G U151C,≤ -4.2
16,G48U A49C G68U G74A C76A G88U C116G,≤ -4.2
17,A49G U53A U144G,-0.883
18,G50A C54U G80A U82G G88A G92A C93G U145A,≤ -4.2
19,G50U U77A C87A,≤ -4.2
20,G48U U55G C118G C131U A137C U145A,≤ -4.2
21,G50U U56A A91G C116U,-2.81
22,G50C U109G A113G A120C U130G,≤ -4.2
23,A49G A91G A142C,-3.71
24,G50U A73U G84A U109G,≤ -4.2

row,Variant,polymerase ribozyme fitness (log ratio)
1,A49U C85A,-1.86
2,A49U C85U,-2.25
3,G50A C75U G83U C93U G141A,≤ -4.2
4,G50A A98U G126A,-1.26
5,G50U A107C C132A,≤ -4.2
6,G48A A52G C116U,-0.319
7,G50C G80A C85U C87U C108U,≤ -4.2
8,G48A A73G C87G A89U C96A G136A,≤ -4.2
9,G48A C69G G84U,-2.41
10,G50A U56A G86A,-3.11
11,G48U U146G,-1.42
12,C51A A52G U56G C79A,≤ -4.2
13,A49U U55C U56A A73U C93U G117C,≤ -4.2
14,A49G C63A G71U G83U A122U A150U,≤ -4.2
15,G48A G86C C123A C125G,-3.94
16,G50A C75U C96A A97U,≤ -4.2
17,G50A U56A G88C A106G,≤ -4.2
18,G48U U56A C87G U90C,-4.07
19,G48C C63A G83A G133C,-3.98
20,G50A U55G C87U,-1.24
21,C51A C63A G88U G126A,≤ -4.2
22,G48C A91U G143C,≤ -4.2
23,G48U G59U,0.371
24,G50C C87A C114G A150C,≤ -4.2

row,Variant,polymerase ribozyme fitness (log ratio)
1,G50A G70A C75A,≤ -4.2
2,G50A C108A G124U U148G,≤ -4.2
3,G50A A73U C96G A98U A120U A137G,≤ -4.2
4,G48C G80A C85U A120U A137G,≤ -4.2
5,C51A C95U A119G,-1.34
6,G48U G86U,-1.58
7,G50A G84U A147U,-1.53
8,G48A A137G C149U,-3.82
9,G48C C85U U102G U104A C118U C125A,-4.14
10,G50A A120G A122U A150U,-2.03
11,A49C U56C,≤ -4.2
12,G48A U56A U109G,-1.39
13,G50A C93U A142U,-3.71
14,A49U G50A C85G C116G A121U,-1.16
15,A49C G81C C85U A98U U104C,≤ -4.2
16,G50C A120U A121C,-2.61
17,A49U A60U G81U A106G C118A U134C,-3.51
18,A49C U55A G86A C99G A142U,≤ -4.2
19,G48U U134G,-2.34
20,A47U G83C A142G,-2.42
21,G48U G92U U144C,-0.761
22,A49G C51G U78C C96G,-4.14
23,G48C C99U C105G,≤ -4.2
24,A49C U56A C69A C99A,≤ -4.2

row,Variant,polymerase ribozyme fitness (log ratio)
1,C51A C72A G80U U146C,≤ -4.2
2,G50C A89G C99U A122G,≤ -4.2
3,G50A U53A C85A U109G A115G C116G G126C,≤ -4.2
4,G50C C87G,≤ -4.2
5,G48U A52C C93U,-3.41
6,A49U C54U G88C U90A C114U A142C,≤ -4.2
7,G50U G126C A138U,≤ -4.2
8,G50C G86A,≤ -4.2
9,A49C G71A,≤ -4.2
10,A49C U53G U56C A119C,≤ -4.2
11,A49G A52C G86C,-3.61
12,G48A C75U C87A G143A,≤ -4.2
13,G50A C95A U111A U135A,≤ -4.2
14,G50A C118U A122G A137G A147U,-2.53
15,G50A G133C,-3.28
16,G50C G59U C118U,-2.35
17,G50U G81A C96G A142U,-2.59
18,G48A G136C,-2.57
19,G50A A52G C76U A98G C123G,-2.81
20,G50A U55A,-1.34
21,G48A C93G,-3.69
22,G50C C54U U56A G59U,-3.48
23,C51A C85U C103G G124A U145G A150G,≤ -4.2
